Test [1] concerns the target T1, extracellular domain of human CD79b (huCD79becd) (human, UniProt P40259 29-159).
T1 construct: Expressed in CHO cells
T1 sequence: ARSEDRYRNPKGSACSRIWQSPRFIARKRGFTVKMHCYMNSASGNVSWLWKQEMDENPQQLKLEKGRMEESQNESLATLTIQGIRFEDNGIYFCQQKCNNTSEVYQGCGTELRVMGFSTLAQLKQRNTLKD
As to the kind of experiment: Biacore surface plasmon resonance; huCD79becd immobilized on CM5 chip, Fab injected. On the procedure:
(§1) Binding of Fab and IgG variants of ch2F2, the 2F2-grafted “humanized” antibody (hu2F2 graft) or 2F2-grafted “humanized” antibody variant 7 (hu2F2.D7) to immobilized huCD79becd or CD79b-Fc or the 16 amino acid peptide containing the epitope for 2F2 was measured by surface plasma resonance. Affinity determinations were performed by surface plasmon resonance using a BIAcore™-2000. The antigen, huCD79becd or huCD79b-Fc was immobilized (approximately 50-200 RU) in 10 mM sodium acetate pH 4.8 on a CM5 sensor chip. In experiments that measured binding to the 16 amino acid peptide ([…]) (SEQ ID NO: 78) containing the epitope (amino acids 1-11 of SEQ ID NO: 78) for 2F2, the biotinylated peptide was captured (approximately 20 RU) on a streptavidin coated sensor chip. Purified 2F2-grafted “humanized” antibody variant (as Fab or IgG) (a 2-fold serial dilution of 0.5 to 1000 nM in PBST) was injected at a flow rate of 30 μL/min. Each sample was analyzed with 4-minute association and 10-minute disassociation. After each injection the chip was regenerated using 10 mM Glycine pH 1.7.
(§2) Binding response was corrected by subtracting a control flow cell from 2F2-grafted “humanized” antibody variant (as Fab or IgG) flow cells. A 1:1 Languir model of simultaneous fitting of kₒₙ and koff was used for kinetics analysis.
In general terms: Surface plasmon resonance follows binding to a sensor surface in real time, without labels.

In test [2] the target is T1, extracellular domain of human CD79b …. As to the kind of experiment: Biacore surface plasmon resonance; huCD79becd immobilized on CM5 chip, IgG injected. The procedure:
as §1, §2

Test [3] deals with T2, 16 amino acid peptide (ARSEDRYRNPKGSACK) containing the epitope for 2F2 (human, also: biotinylated, site not given here).
T2 construct: Synthetic peptide; Captured as biotinylated peptide on a streptavidin sensor chip; also called 16mer peptide; test peptide
T2 peptide: ARSEDRYRNPKGSACK
As to the kind of experiment: Biacore surface plasmon resonance; biotinylated 16mer peptide captured on streptavidin chip, IgG injected. On the procedure: as §1, §2

In test [4] the target is T3, human CD79b on BJAB cells (human, UniProt P40259 29-229).
T3 construct: Endogenous CD79b of BJAB cells; also called PRO36249; endogenous human-CD79b
T3 sequence: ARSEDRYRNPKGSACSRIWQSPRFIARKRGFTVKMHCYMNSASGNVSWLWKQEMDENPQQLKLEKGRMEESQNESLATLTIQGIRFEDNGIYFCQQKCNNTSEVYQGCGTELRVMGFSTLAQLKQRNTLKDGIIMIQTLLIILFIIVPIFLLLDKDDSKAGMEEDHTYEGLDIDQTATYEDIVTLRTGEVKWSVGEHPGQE
As to the kind of experiment: Scatchard analysis, I-125 hu2F2.D7 competed by unlabeled hu2F2.D7 IgG on BJAB cells stably expressing cynomolgus CD79b and endogenous human CD79b; hu2F2.D7 reformatted as IgG; BJAB cells stably expressing cynomolgus CD79b and endogenous human CD79b. On the procedure: (§3) To further determine binding of the IgG variants of the 2F2-graft “humanized” antibody variant 7 (hu2F2.D7) having changes in HVR-L3, binding of iodinated anti-CD79b (with the same epitope as ch2F2) to BJAB cells expressing human CD79b and cynomologous CD79b using competition with unlabeled ch2F2 was analyzed and Scatchard analysis was performed.
(§4) For Scatchard analysis, 0.5 nM I¹²⁵ labeled anti-human CD79b with the same epitope as ch2F2 or 0.5 nM I¹²⁵ labeled 2F2-graft “humanized” antibody variant 7 (hu2F2.D7) was competed against unlabeled ch2F2 or hu2F2.D7, respectively, ranging from 50 to 0.02 nM (12 step 1:2 serial dilution) in the presence of a transfected BJAB line stably expressing cynomologous-CD79b and endogenous human-CD79b. After a four hour incubation at 4° C., cells were washed and cell pellet counts were read by a gamma counter (1470 WIZARD Automatic Gamma Counter; Perkin Elmer, Walthem, Mass.). All points were done in triplicate and counted for 10 minutes. The average CPM was used for Kd calculation using the New Ligand (Genentech, South San Francisco, Calif.) program.

The target in test [5] is T4, extracellular domain of human CD79b fused to Fc (huCD79becd-Fc) (human, UniProt P40259 29-159).
T4 construct: Expressed in CHO cells; also called huCD79b-Fc; CD79b-Fc
T4 sequence: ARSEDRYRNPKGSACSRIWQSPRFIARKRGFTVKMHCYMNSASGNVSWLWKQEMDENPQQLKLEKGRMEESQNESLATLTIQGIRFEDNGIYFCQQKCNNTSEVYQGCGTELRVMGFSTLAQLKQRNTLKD
As to the kind of experiment: Biacore surface plasmon resonance; huCD79becd-Fc immobilized on CM5 chip, IgG injected. The procedure:
as §1, §2

For test [6], the target named is T2, 16 amino acid peptide …. Nature of the test: Biacore surface plasmon resonance; biotinylated peptide captured on streptavidin chip, IgG injected; the sheet names the antigen '15mer peptide', legend and text name only the 16mer peptide (SEQ ID NO: 78). On the procedure: as §1, §2
Test [7] concerns the target T3, human CD79b on BJAB cells. Nature of the test: Scatchard analysis, I-125 tracer competed by unlabeled IgG on BJAB cells stably expressing cynomolgus CD79b and endogenous human CD79b; ch2F2 IgG; BJAB cells stably expressing cynomolgus CD79b and endogenous human CD79b. The procedure: as §3, §4

No end group written: not given here.

B1: hu 2F2.D7 (Fab column) (Fab, V domains shown)
VH: EVQLVESGGGLVQPGGSLRLSCAASGYTFTSYWMNWVRQAPGKGLEWVGMIDPSDSETHYNHIFKDRFTISADTSKNTAYLQMNSLRAEDTAVYYCARNLYLWGQGTLVTVSS
VL: DIQMTQSPSSLSASVGDRVTITCKSSQSLLDSDGKTYLNWYQQKPGKAPKLLIYLVSKLDSGVPSRFSGSGSGTDFTLTISSLQPEDFATYYCFQGTHFPFTFGQGTKVEIKR
notes: also called 2F2-grafted humanized antibody variant 7 as purified Fab; copies: 1 + 1
Broadly, the Kd is the concentration at which binding is half-saturated. A high value points to a looser complex. In the case of B1, the dissociation constant (Kd) in test [1] is 68 nM.

B2: 2F2-grafted "humanized" antibody variant 7 (hu2F2.D7), reformatted as IgG (antibody, V domains shown)
VH: EVQLVESGGGLVQPGGSLRLSCAASGYTFTSYWMNWVRQAPGKGLEWVGMIDPSDSETHYNHIFKDRFTISADTSKNTAYLQMNSLRAEDTAVYYCARNLYLWGQGTLVTVSS
VL: DIQMTQSPSSLSASVGDRVTITCKSSQSLLDSDGKTYLNWYQQKPGKAPKLLIYLVSKLDSGVPSRFSGSGSGTDFTLTISSLQPEDFATYYCFQGTHFPFTFGQGTKVEIKR
notes: also called humanized 2F2.D7
For B2, the dissociation constant Kd in test [2] was determined as 3.9 nM; in test [3], 2.7 nM; in test [4], 2 nM.

B3: chimeric 2F2 antibody (ch2F2) IgG1 (antibody, V domains shown)
VH: QVQLQQPGAELVRPGASVKLSCKASGYTFTSYWMNWVKQRPGQGLEWIGMIDPSDSETHYNHIFKDKATLTVDKSSSTAYLQLSSLTSEDSAVYYCARNLYLWGQGTSVTVSL
VL: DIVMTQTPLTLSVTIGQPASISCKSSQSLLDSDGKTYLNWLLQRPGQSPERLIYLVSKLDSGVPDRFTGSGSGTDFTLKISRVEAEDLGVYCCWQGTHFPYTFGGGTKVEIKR
Consider B3, for which the Kd was 1.4 nM in test [2], 2.7 nM in test [5], 2 nM in test [6] and 0.99 nM in test [7].

Values taken from US20090068202A1 (Genentech, published 2009).
